These results are taken from publication PMC10937945.

This data set has as its target HTNV-L (full-length Hantaan virus polymerase, L protein) (Hantaan virus (strain 76-118/Korean …, UniProt P23456 1-2151)). Briefly: cryo-EM; 30 mM HEPES pH 8, 250 mM NaCl, 5 mM TCEP ([…]; temperature not stated. The conditions noted are these: protein: recombinant; tags: N-terminal His6.

HTNV-L (full-length Hantaan virus polymerase, L protein) (Hantaan virus, sequence (P23456 whole entry): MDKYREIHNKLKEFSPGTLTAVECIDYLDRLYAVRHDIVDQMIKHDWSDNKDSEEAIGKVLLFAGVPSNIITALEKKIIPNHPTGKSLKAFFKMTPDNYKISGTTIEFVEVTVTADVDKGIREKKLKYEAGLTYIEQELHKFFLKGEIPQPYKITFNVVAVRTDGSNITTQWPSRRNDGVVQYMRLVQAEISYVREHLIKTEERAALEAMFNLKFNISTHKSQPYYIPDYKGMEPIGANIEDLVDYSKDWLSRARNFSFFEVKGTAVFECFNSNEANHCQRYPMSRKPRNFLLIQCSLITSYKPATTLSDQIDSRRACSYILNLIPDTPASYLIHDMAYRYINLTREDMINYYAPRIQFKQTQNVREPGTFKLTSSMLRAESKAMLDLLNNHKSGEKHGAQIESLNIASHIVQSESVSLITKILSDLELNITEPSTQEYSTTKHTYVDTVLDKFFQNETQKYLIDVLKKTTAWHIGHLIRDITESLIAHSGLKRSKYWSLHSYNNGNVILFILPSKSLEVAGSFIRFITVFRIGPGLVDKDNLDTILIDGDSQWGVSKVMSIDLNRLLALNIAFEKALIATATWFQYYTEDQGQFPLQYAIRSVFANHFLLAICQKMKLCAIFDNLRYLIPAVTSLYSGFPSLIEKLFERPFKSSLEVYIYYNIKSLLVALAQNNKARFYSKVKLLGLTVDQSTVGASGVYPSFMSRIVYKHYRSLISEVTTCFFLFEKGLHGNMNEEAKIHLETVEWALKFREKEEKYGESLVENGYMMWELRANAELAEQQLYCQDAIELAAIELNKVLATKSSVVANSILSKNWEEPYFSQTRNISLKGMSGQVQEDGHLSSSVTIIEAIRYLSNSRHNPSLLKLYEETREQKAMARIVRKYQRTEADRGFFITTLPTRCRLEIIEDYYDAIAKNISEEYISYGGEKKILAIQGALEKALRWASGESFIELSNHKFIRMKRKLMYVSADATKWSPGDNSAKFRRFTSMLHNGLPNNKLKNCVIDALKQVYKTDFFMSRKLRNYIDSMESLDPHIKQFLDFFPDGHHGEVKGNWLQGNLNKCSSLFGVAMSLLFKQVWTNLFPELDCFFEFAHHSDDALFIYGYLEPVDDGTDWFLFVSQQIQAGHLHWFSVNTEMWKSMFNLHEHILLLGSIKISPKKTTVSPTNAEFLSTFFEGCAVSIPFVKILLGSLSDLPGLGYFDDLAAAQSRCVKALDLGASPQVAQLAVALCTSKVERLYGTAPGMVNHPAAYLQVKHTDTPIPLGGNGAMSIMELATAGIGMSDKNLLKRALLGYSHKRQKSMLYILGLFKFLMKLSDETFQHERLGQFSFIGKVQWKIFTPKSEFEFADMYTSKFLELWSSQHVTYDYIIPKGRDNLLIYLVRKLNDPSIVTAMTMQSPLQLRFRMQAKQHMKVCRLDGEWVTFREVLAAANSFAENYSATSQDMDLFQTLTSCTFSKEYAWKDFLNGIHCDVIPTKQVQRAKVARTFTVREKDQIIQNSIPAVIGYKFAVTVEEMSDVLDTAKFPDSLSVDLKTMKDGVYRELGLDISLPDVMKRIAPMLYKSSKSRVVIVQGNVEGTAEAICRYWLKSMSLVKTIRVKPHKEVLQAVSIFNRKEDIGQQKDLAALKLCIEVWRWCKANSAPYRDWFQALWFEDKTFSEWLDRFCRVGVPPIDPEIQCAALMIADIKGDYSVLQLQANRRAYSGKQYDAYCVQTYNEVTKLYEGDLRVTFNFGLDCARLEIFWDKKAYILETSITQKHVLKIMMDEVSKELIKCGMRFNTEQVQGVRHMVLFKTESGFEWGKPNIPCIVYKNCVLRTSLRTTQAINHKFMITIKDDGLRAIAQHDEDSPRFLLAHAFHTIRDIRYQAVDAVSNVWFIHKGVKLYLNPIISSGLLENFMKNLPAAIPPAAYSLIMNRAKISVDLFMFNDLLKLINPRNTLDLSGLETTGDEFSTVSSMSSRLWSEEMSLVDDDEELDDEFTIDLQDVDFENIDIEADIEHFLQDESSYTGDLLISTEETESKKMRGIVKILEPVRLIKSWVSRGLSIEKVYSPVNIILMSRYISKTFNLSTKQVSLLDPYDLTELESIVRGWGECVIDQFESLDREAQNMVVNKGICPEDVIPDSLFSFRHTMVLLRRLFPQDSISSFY

Regarding UAGUAGUAGACACCGCAAGAUGUUA (ssRNA) [5'vRNA], the binding result is “binds”.
